This note sets out measurements from paper PMC12440826, “Shigella flexneri evades LPS ubiquitylation through IpaH1.4-mediated degradation of RNF213” (Nature Structural & Molecular Biology, 2025).

For this test, the target named is T1, 2×Strep–RNF213 (WT human RNF213) (human, UniProt Q63HN8 1-5207).
T1 construct: RNF213, human E3 ubiquitin ligase; plasmid pOP806_pACEBac1 2×Strep–RNF213; the N terminus (residues 1–398) is not resolved in the maps; source: Sf9, purified (StrepTrap HP)
As to the kind of experiment: cryo-EM structure; RNF213 (around 2 μM) mixed with a fivefold molar excess of IpaH1.4/2.5 (10 μM), incubated on ice for 30 min, vitrified on all-gold grids. Conditions: both partners purified.

T1 sequence (Q63HN8 whole entry, the tested form may be a part): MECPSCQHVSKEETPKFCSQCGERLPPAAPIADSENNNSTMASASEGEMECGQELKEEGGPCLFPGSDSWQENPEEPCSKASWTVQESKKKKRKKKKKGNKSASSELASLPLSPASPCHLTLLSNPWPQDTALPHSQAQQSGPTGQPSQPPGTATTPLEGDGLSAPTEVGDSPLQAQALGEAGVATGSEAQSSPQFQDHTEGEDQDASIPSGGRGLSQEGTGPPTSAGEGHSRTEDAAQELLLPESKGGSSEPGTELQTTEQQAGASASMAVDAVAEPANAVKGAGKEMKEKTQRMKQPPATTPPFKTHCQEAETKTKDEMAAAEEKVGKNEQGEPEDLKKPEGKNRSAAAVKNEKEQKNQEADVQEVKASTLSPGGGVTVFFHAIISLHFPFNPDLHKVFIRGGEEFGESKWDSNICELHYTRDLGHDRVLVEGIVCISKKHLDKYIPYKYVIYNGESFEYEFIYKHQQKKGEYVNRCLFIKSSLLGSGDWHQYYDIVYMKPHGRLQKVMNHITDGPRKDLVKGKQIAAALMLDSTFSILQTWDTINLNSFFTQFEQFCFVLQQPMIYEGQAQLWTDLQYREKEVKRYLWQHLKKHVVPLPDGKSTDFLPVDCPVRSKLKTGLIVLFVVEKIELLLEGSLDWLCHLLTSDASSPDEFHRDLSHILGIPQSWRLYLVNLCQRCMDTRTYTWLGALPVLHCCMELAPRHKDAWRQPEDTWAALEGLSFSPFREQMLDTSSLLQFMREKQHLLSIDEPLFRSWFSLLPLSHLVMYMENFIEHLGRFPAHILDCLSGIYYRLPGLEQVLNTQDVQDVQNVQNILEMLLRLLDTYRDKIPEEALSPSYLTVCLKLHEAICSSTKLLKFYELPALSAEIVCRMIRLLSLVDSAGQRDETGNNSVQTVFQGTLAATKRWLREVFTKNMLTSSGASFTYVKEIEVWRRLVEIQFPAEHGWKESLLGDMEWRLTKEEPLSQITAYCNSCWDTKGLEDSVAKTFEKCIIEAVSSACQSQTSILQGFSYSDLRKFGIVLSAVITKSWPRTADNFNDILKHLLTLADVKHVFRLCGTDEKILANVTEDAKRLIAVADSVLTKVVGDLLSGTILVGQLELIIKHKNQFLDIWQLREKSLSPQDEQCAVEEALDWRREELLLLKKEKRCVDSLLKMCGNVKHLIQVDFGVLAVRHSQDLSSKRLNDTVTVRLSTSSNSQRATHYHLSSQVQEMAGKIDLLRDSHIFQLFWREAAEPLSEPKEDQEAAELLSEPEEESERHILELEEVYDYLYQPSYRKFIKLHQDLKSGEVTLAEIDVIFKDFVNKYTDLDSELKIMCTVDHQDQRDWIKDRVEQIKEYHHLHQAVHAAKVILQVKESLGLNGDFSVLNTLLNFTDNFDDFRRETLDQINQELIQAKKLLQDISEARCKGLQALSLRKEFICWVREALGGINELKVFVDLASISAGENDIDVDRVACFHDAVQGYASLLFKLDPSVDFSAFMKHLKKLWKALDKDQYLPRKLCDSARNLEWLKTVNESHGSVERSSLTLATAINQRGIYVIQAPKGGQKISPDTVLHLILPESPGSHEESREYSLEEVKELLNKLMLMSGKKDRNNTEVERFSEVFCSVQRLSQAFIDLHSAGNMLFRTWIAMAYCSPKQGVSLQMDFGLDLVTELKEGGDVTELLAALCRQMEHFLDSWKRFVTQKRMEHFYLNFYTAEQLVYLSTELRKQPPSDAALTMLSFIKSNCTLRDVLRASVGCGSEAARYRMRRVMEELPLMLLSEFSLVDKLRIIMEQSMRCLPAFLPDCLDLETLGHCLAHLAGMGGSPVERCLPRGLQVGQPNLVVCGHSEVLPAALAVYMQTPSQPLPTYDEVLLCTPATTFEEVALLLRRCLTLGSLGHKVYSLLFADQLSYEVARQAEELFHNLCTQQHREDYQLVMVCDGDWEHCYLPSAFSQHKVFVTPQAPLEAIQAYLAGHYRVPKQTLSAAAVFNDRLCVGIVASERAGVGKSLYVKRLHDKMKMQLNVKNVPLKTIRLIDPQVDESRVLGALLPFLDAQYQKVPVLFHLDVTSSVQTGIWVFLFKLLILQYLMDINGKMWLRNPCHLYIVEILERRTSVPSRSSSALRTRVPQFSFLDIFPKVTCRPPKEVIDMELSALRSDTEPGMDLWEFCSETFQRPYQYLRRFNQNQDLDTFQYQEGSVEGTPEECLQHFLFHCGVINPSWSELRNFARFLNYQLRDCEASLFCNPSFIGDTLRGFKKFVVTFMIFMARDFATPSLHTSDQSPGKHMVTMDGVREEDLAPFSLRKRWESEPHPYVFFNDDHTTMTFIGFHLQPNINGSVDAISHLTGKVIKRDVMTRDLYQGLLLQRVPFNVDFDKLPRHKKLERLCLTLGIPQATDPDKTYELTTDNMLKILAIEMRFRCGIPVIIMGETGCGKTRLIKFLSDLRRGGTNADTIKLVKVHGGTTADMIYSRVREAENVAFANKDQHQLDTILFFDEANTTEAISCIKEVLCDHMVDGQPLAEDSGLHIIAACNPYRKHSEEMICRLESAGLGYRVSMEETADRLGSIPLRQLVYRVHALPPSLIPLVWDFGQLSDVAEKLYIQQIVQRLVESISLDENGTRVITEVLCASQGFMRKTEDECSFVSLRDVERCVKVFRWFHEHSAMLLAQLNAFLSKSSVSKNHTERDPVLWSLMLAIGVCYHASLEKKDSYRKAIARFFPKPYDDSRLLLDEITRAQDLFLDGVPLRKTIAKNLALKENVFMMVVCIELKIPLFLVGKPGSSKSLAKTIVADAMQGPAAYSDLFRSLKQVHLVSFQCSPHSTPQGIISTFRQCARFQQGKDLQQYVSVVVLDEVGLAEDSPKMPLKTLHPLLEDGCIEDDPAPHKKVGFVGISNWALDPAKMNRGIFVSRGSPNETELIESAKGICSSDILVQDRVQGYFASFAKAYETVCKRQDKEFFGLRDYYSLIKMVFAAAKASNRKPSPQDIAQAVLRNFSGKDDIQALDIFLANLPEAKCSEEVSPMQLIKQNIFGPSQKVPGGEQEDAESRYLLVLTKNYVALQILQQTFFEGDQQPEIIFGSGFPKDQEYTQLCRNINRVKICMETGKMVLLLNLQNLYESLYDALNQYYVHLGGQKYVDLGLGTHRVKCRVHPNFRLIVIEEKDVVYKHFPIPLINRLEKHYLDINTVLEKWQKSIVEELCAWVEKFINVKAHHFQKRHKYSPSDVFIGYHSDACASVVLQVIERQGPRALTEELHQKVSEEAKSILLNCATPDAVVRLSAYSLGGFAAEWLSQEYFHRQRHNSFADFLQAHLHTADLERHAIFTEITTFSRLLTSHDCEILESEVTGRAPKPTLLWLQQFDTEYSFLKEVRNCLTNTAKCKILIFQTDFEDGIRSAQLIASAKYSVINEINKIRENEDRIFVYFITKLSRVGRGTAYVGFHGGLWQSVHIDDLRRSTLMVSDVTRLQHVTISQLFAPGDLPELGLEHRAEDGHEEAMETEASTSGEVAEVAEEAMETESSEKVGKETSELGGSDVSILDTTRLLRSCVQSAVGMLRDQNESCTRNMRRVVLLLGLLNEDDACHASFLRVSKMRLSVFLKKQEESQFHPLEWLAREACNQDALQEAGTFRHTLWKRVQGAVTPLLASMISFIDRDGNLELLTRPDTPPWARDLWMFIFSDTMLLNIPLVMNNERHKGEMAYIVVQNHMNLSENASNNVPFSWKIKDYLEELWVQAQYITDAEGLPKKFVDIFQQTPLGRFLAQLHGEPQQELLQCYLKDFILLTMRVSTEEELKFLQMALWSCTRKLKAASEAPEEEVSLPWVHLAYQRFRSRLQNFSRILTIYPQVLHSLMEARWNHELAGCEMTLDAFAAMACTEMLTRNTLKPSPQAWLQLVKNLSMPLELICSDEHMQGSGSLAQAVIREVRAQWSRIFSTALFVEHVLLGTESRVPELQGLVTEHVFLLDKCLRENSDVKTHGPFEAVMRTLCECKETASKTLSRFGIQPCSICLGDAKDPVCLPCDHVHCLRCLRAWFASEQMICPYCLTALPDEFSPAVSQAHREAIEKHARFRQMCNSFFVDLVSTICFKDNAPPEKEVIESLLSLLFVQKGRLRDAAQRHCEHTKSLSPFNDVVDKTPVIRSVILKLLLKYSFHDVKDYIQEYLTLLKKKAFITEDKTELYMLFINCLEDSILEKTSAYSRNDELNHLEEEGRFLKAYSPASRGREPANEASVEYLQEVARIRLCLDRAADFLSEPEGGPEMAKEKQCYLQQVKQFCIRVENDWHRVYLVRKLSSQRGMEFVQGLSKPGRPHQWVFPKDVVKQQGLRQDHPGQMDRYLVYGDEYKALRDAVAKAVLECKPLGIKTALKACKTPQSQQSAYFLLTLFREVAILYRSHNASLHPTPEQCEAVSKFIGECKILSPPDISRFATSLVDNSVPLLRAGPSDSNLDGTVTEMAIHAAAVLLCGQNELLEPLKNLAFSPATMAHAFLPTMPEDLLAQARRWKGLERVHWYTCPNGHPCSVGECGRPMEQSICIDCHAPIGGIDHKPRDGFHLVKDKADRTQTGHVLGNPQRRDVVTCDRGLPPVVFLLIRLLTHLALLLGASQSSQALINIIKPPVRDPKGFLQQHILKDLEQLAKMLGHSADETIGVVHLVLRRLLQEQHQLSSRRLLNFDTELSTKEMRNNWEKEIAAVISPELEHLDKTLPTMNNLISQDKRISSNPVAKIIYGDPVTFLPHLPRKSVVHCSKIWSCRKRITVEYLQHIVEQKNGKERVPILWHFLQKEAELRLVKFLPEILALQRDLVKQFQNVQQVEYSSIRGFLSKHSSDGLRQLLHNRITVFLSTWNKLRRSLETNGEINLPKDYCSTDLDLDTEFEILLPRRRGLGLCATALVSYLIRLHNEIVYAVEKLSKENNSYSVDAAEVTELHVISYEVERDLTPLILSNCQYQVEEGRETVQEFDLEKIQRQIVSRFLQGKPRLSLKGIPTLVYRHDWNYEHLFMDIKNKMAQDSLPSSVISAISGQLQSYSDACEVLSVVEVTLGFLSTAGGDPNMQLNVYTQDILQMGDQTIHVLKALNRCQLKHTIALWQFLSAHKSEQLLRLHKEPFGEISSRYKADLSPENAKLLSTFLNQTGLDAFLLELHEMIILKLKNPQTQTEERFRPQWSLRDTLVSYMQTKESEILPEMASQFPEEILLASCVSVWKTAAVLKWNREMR

B1: IpaH1.4 (untagged, recombinant) (enzyme)
chain: MIKSTNIQAIGSGIMHQINNVYSLTPLSLPMELTPSCNEFYLKTWSEWEKNGTPGEQRNIAFNRLKICLQNQEAELNLSELDLKTLPDLPPQITTLEIRKNLLTHLPDLPPMLKVIHAQFNQLESLPALPETLEELNAGDNKIKELPFLPENLTHLRVHNNRLHILPLLPPELKLLVVSGNRLDSIPPFPDKLEGLALANNFIEQLPELPFSMNRAVLMNNNLTTLPESVLRLAQNAFVNVAGNPLSGHTMRTLQQITTGPDYSGPQIFFSMGNSATISAPEHSLADAVTAWFPENKQSDVSQIWHAFEHEEHANTFSAFLDRLSDTVSARNTSGFREQVAAWLEKLSASAELRQQSFAVAADATESCEDRVALTWNNLRKTLLVHQASEGLFDNDTGALLSLGREMFRLEILEDIARDKVRTLHFVDEIEVYLAFQTMLAEKLQLSTAVKEMRFYGVSGVTANDLRTAEAMVRSREENEFTDWFSLWGPWHAVLKRTEADRWAQAEEQKYEMLENEYSQRVADRLKASGLSGDADAEREAGAQVMRETEQQIYRQLTDEVLALRLSENGSNHIA
notes: IpaH1.4, secreted E3 ubiquitin ligase effector of Shigella flexneri; open reading frame cloned into pETM-30; only the LRR domain is resolved in the map; also called WT IpaH1.4; not shown: 6xHis, N-terminal, cleaved; GST, N-terminal, cleaved
Turning to B1, the binding result was “binds”.
